This note sets out measurements from patent US20160222130A1 (Astellas, published 2016).

The target of one assay is T1, Human Tie2 (1-452)g4-Fc (human, UniProt Q02763 23-452).
T1 construct: range 1-452
Put plainly: ELISA; Tie2-Fc coated at 1 ug/mL, chemiluminescence. As to the method:
(§1) The next day, the immobilized solution was removed, and the plate was washed with a TBS-T solution, and incubated for 60 minutes by the addition of 50 μL of a Blocker™ Casein in TBS (Thermo Fisher Scientific Inc., 37532) to perform blocking. The resultant was washed with a TBS-T solution, and TIE-1-Igγ1-LALA, diluted with 0.05% Tween 20 (Nacalai Tesque Inc., 28353-85)—containing Blocker™ Casein in TBS from 0.03 ng/mL to 100 ng/mL through eight steps, was added thereto in the amount of 20 μL per well. The resultant was incubated at room temperature for 90 minutes and then washed with a TBS-T solution three times, and 20 μL of a biotin-labeled anti-human kappa light chain antibody, which had been diluted to 0.1 μg/mL with 0.05% Tween 20-containing Blocker™ Casein in TBS, was added thereto. The resultant was incubated at room temperature for 60 minutes and then washed with a TBS-T solution three times, and 20 μL of alkaline phosphatase-labeled streptavidin, which had been diluted to 0.1 μg/mL with 0.05% Tween 20-containing Blocker™ Casein in TBS, was added thereto. The resultant was incubated at room temperature for 60 minutes and then washed with a TBS-T solution three times, and 50 μL of Chemiluminescent Ultra Sensitive AP Microwell and/or Membrane Substrate (450 nm), which had been 5-fold diluted with 1 mM MgCl₂-containing 20 mM TBS (pH 9.8) as a substrate, was added thereto. The resultant was incubated at room temperature under light-shielding for 40 minutes, and then luminescent intensity thereof was measured with an EnVision™ multi-label counter. The EC₅₀ value of TIE-1-Igγ1-LALA with respect to the human Tie2 (1-452)-Fc chimeric protein and 23 mutant proteins thereof were calculated. The relative value of luminescent intensity of 100 ng/mL TIE-1-Igγ1-LALA as maximum concentration point with respect to human Tie2 (1-452)-Fc chimeric protein and 23 mutant proteins thereof when the convergence value of the sigmoid curve of TIE-1-Igγ1-LALA binding to the human Tie2 (1-452)-Fc chimeric protein which was taken as 100% was calculated (Table 8 and Table 9). Further, the EC₅₀ value and the convergence value were calculated by Sigmoid-Emax model non-linear regression analysis.

Another assay addresses T2, Human Tie2 (1-452)r6-Fc (human, UniProt Q02763 23-452).
T2 construct: range 1-452
The description is as above. As to the method:
as §1

Another assay deals with T3, Human Tie2 (1-452)r5-Fc (human, UniProt Q02763 23-452).
T3 construct: range 1-452
The assay is described as above. The protocol: as §1

A further assay addresses T4, Human Tie2 (1-452)g5-Fc (human, UniProt Q02763 23-452).
T4 construct: range 1-452
The assay is described as above. As to the method:
as §1

Another assay deals with T5, Human Tie2 (1-452)g1-Fc (human, UniProt Q02763 23-452).
T5 construct: range 1-452
The assay is described as above. As to the method: as §1

Another assay deals with T6, Human Tie2 (1-452)g6-Fc (human, UniProt Q02763 23-452).
T6 construct: range 1-452
The description is as above. The protocol: as §1

Another assay concerns the target T7, Human Tie2 (1-452)m1-Fc (human, UniProt Q02763 23-452).
T7 construct: range 1-452
Described as above. The protocol: as §1

In another assay the target is T8, Human Tie2 (1-452)c1-Fc (human, UniProt Q02763 23-452).
T8 construct: range 1-452
Described as above. As to the method:
as §1

The next assay concerns the target T9, Human Tie2 (1-452)r3-Fc (human, UniProt Q02763 23-452).
T9 construct: range 1-452
The assay is described as above. The protocol: as §1

In the next assay the target is T10, Human Tie2 (1-452)y1-Fc (human, UniProt Q02763 23-452).
T10 construct: range 1-452
Described as above. As to the method: as §1

The target in a further assay is T11, Human Tie2 (1-452)r2-Fc (human, UniProt Q02763 23-452).
T11 construct: range 1-452
Described as above. As to the method: as §1

In a further assay the target is T12, Human Tie2 (1-452)r4-Fc (human, UniProt Q02763 23-452).
T12 construct: range 1-452
The description is as above. As to the method: as §1

For assay [1], the target named is human Tie2 (on human Tie2-expressing cells) (human, UniProt Q02763 23-1124). Put plainly: cell-based or functional assay.
For the next assay, the target named is T13, Human Tie2 (1-452)A5-Fc (human, UniProt Q02763 23-452).
T13 construct: range 1-452
Put plainly: ELISA; Tie2-Fc coated at 1 ug/mL, chemiluminescence. The protocol:
as §1

A further assay concerns the target T14, Human Tie2 (1-452)A6-Fc (human, UniProt Q02763 23-452).
T14 construct: range 1-452
The assay is described as above. As to the method:
as §1

For assay [2], the target named is T15, human Tie2 (1-452)-Fc chimeric protein (human, UniProt Q02763 23-452).
T15 construct: range 1-452; The stated range 1-452 begins at residue 1 of the precursor
Described as above. The protocol: as §1

The target in another assay is T16, Human Tie2 (1-452)A2-Fc (human, UniProt Q02763 23-452).
T16 construct: range 1-452
The assay is described as above. The protocol:
as §1

The target of a further assay is T17, Human Tie2 (1-452)A3-Fc (human, UniProt Q02763 23-452).
T17 construct: range 1-452
Described as above. The protocol: as §1

Another assay addresses T18, Human Tie2 (1-452)A4-Fc (human, UniProt Q02763 23-452).
T18 construct: range 1-452
The description is as above. As to the method: as §1

The next assay has as its target T19, Human Tie2 (1-452)A1-Fc (human, UniProt Q02763 23-452).
T19 construct: range 1-452
The assay is described as above. As to the method: as §1

T18 sequence (Q02763 other isoform, or with tags, fused parts or gaps limits assumed, form in doubt): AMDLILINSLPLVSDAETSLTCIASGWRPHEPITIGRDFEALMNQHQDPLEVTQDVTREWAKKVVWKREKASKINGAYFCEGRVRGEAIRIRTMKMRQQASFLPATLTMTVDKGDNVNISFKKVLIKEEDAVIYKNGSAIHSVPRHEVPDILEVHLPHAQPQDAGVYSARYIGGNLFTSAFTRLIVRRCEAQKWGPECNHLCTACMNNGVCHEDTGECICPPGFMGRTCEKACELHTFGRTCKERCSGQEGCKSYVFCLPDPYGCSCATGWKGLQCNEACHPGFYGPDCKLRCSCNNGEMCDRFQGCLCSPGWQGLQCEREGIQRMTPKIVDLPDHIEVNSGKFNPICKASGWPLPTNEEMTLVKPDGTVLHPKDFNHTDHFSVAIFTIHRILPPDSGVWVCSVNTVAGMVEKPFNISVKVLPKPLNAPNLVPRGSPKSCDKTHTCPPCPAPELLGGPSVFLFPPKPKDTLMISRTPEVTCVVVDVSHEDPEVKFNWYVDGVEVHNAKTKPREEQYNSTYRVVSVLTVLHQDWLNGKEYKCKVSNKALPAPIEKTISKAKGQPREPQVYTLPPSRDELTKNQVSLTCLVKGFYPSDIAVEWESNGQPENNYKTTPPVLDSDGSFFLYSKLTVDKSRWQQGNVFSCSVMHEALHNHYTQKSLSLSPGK
T3 sequence (Q02763 other isoform, or with tags, fused parts or gaps limits assumed, form in doubt): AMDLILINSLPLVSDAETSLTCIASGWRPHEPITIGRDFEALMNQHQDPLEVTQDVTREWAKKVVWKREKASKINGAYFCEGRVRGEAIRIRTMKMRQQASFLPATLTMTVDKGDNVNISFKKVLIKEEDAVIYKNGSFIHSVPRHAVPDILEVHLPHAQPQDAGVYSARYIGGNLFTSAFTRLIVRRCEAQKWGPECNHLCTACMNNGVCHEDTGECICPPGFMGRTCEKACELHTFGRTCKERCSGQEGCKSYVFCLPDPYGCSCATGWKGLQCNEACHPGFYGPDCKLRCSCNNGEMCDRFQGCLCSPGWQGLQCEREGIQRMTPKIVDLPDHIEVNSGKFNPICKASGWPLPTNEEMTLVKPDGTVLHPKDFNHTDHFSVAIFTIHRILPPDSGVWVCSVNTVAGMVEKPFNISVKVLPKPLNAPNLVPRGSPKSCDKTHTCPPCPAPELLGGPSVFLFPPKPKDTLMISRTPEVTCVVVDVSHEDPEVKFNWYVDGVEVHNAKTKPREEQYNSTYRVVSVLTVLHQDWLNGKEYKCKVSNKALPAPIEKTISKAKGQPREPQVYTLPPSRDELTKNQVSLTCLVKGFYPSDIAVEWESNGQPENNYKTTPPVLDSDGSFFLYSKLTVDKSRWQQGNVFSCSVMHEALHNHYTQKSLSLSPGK
Sequence of human Tie2 (on human Tie2-expressing cells) (Q02763 23-1124): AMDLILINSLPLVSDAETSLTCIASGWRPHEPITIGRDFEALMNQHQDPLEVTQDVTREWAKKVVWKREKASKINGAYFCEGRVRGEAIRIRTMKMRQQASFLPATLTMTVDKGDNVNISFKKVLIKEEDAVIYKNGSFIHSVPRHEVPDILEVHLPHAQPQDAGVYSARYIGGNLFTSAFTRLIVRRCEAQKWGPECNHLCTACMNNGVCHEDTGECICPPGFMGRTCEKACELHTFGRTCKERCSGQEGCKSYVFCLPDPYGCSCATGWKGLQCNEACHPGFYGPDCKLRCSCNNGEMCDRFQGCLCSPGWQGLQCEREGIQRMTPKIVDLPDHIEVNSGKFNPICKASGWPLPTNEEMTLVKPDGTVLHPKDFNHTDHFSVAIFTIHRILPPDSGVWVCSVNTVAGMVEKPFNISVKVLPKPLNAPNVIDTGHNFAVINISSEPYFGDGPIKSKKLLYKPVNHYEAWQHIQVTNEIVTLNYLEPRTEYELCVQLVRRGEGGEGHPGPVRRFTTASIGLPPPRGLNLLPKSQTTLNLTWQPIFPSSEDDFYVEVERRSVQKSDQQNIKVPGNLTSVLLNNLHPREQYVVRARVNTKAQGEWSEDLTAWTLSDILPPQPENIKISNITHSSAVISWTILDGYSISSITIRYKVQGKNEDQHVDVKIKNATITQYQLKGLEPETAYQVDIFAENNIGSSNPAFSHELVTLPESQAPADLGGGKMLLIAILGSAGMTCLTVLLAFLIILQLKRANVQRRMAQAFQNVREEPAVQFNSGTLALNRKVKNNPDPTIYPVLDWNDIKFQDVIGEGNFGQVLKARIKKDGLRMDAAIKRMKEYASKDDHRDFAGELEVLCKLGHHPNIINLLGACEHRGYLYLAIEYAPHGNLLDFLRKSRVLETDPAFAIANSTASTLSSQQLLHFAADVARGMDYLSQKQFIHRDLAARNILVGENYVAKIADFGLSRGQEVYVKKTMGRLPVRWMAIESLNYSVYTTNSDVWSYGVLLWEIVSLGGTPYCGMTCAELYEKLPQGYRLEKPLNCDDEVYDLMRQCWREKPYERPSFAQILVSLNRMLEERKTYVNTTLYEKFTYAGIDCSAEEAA
T10 sequence (Q02763 other isoform, or with tags, fused parts or gaps limits assumed, form in doubt): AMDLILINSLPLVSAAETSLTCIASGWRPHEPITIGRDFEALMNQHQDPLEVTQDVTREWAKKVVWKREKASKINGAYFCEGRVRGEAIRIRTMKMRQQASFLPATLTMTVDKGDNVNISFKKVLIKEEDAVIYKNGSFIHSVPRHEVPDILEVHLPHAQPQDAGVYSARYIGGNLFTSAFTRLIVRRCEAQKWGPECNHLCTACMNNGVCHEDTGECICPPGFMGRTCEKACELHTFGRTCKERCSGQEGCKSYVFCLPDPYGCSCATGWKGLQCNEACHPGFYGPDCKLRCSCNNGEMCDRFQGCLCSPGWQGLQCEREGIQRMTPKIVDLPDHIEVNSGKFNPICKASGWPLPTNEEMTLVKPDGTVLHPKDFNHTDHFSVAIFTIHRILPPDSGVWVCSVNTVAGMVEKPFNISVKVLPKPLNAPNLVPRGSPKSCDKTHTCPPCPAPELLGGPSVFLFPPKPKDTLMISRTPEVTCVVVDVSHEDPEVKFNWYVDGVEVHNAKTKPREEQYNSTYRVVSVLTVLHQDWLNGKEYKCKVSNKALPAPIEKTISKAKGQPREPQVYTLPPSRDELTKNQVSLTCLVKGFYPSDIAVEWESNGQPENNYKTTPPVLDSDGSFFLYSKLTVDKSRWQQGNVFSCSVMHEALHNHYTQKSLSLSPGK
T19 sequence (Q02763 other isoform, or with tags, fused parts or gaps limits assumed, form in doubt): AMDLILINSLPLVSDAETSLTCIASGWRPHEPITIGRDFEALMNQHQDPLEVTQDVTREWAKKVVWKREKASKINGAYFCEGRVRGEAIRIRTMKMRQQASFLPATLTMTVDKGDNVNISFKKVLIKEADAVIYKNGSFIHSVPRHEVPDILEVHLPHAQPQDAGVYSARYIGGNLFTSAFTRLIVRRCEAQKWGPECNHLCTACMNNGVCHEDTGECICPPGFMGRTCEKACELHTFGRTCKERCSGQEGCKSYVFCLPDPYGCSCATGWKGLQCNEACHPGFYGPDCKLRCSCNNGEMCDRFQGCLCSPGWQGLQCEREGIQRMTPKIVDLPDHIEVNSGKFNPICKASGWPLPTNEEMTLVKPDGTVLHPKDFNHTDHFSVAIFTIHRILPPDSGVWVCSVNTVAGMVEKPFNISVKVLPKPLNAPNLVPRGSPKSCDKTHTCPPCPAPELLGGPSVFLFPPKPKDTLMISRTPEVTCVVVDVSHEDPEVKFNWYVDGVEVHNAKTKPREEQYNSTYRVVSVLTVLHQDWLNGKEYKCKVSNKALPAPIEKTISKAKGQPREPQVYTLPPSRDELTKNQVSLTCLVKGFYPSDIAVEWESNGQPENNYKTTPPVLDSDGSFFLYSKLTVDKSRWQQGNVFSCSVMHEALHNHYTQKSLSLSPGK

B1: TIE-1-Igγ1-LALA (antibody, human IgG1, kappa, L234A L235A)
heavy: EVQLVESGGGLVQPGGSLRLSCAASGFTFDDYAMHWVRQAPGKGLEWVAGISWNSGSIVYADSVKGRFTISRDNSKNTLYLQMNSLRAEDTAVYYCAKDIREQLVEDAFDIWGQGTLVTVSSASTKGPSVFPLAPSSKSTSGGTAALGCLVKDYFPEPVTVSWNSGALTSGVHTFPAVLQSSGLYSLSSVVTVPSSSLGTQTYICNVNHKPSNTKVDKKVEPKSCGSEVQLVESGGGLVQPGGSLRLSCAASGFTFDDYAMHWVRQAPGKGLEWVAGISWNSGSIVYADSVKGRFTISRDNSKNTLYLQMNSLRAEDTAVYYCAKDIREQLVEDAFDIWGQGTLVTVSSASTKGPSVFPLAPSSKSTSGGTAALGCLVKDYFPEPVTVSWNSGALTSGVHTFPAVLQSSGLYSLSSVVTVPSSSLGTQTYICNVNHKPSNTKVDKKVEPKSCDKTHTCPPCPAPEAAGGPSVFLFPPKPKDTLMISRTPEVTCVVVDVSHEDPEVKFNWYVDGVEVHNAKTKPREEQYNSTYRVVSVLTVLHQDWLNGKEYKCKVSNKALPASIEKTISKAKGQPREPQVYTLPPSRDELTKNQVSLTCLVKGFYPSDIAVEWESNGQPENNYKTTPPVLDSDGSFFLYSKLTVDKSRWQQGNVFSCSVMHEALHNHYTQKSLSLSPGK
light: DIQMTQSPSSLSASVGDRVTITCRSSQSLLHSHRYNYLDWYQQKPGKAPKLLIYLGSNRASGVPSRFSGSGSGTDFTLTISSVQPEDFATYYCMQTLQTPLTFGQGTKVEIKRTVAAPSVFIFPPSDEQLKSGTASVVCLLNNFYPREAKVQWKVDNALQSGNSQESVTEQDSKDSTYSLSSTLTLSKADYEKHKVYACEVTHQGLSSPVTKSFNRGEC
notes: Tandem tetravalent format: two heavy chains (VH-CH1-linker-VH-CH1-CH2-CH3) and four light chains; also called tetravalent anti-human Tie2 antibody with L234A, L235A and P331S
Take B1: the EC50 in the assay with Human Tie2 (1-452)g4-Fc came to 18 ng/mL; in the assay with Human Tie2 (1-452)r6-Fc it was 1 ng/mL; with Human Tie2 (1-452)r5-Fc, 1 ng/mL; with Human Tie2 (1-452)g5-Fc, 2.2 ng/mL; in the assay with Human Tie2 (1-452)g1-Fc, 12.3 ng/mL; with Human Tie2 (1-452)g6-Fc it was 1.3 ng/mL. The EC50 with Human Tie2 (1-452)m1-Fc is 1 ng/mL; with Human Tie2 (1-452)c1-Fc it was 1 ng/mL; with Human Tie2 (1-452)r3-Fc it was 1 ng/mL; with Human Tie2 (1-452)y1-Fc, 1 ng/mL; with Human Tie2 (1-452)r2-Fc, 0.9 ng/mL; with Human Tie2 (1-452)r4-Fc, 1 ng/mL. For the same molecule, the EC50 was found to be 0.9 ng/mL with Human Tie2 (1-452)A5-Fc; 1.1 ng/mL in the assay with Human Tie2 (1-452)A6-Fc; 1 ng/mL in [2]; 1.3 ng/mL with Human Tie2 (1-452)A2-Fc; 1 ng/mL in the assay with Human Tie2 (1-452)A3-Fc; 1 ng/mL with Human Tie2 (1-452)A4-Fc. For the same molecule, the EC50 in the assay with Human Tie2 (1-452)A1-Fc stood at 1.3 ng/mL. Further, the “EC50 value of anti-apoptotic activity, human Tie2-expressing BaF3 cell” value in assay [1] was found to be 3.65 ng/mL.
